Laboratory results published in patent US20190170753A1 (ICAHN SCHOOL OF MEDICINE AT MOUNT SINAI, published 2019).
Where no end group is shown, it is not given here.

Columns and labels:
[1] = target: HCV core peptide 57 (hepatitis C virus, N-terminal biotin; C-terminal amide); assay: peptide EIA, 2 ug/mL IgG;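 further: purified mouse IgG binding to individually well-coated synthetic peptides, detected with peroxidase anti-mouse IgG Fc and o-phenylenediamine, IgG incubated at least 1 h at room temperature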
Experimental: (§1) The coated plates were kept dry in a sealed foil pouch and stored at <10 degrees C. until ready for use. A peptide coated plate for each test antibody was blocked using 3% BSA in PBS with 0.5% Tween 20. The blocked plates were washed with distilled water and a 2 ug/mL solution of purified IgG from each test sample diluted in BSA block solution was added to each peptide coated well of the blocked plate and allowed to incubate at room temperature for at least one hour. Following incubation the plates were washed with distilled water. A 200 ng/mL solution of peroxidase labeled F(ab′)2 fragment goat anti-mouse IgG Fc fragment specific (Jackson Immunoresearch) in BSA block solution was added to all wells and incubated at room temperature for 30 minutes. The plates were washed with distilled water and o-phenylenediamine substrate was used as the chromagen to generate signal. Plates were read at 492 nm and the results were analyzed.

[2] = target: HCV core peptide 59 (hepatitis C virus, N-terminal biotin; C-terminal amide); assay: peptide EIA, 2 ug/mL IgG;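 further: purified mouse IgG binding to individually well-coated synthetic peptides, detected with peroxidase anti-mouse IgG Fc and o-phenylenediamine, IgG incubated at least 1 h at room temperature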
Experimental: as §1

[3] = target: HCV core peptide 85 (hepatitis C virus, N-terminal biotin; C-terminal amide); assay: peptide EIA, 2 ug/mL IgG;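 further: purified mouse IgG binding to individually well-coated synthetic peptides, detected with peroxidase anti-mouse IgG Fc and o-phenylenediamine, IgG incubated at least 1 h at room temperature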
Experimental: as §1

[4] = target: T1, HCV core peptide 18 (hepatitis C virus, N-terminal biotin; C-terminal amide); assay: peptide EIA, 2 ug/mL IgG;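 further: purified mouse IgG binding to individually well-coated synthetic peptides, detected with peroxidase anti-mouse IgG Fc and o-phenylenediamine, IgG incubated at least 1 h at room temperature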
T1 construct: range 35-49
Experimental: as §1

[5] = target: HCV core peptide 78 (hepatitis C virus, N-terminal biotin; C-terminal amide); assay: peptide EIA, 2 ug/mL IgG
Experimental: as §1

[6] = target: T2, HCV core peptide 27 (hepatitis C virus, N-terminal biotin; C-terminal amide); assay: peptide EIA, 2 ug/mL IgG
T2 construct: range 53-67
Experimental: as §1

[7] = target: T3, HCV core peptide 32 (hepatitis C virus, N-terminal biotin; C-terminal amide); assay: peptide EIA, 2 ug/mL IgG
T3 construct: range 63-77
Experimental: as §1

[8] = target: T4, HCV core peptide 62 (hepatitis C virus, N-terminal biotin; C-terminal amide); assay: peptide EIA, 2 ug/mL IgG
T4 construct: range 123-137
Experimental: as §1

[9] = target: T5, HCV core peptide 41 (hepatitis C virus, N-terminal biotin; C-terminal amide); assay: peptide EIA, 2 ug/mL IgG
T5 construct: range 81-95
Experimental: as §1

[10] = target: T6, HCV core peptide 10 (hepatitis C virus, N-terminal biotin; C-terminal amide); assay: peptide EIA, 2 ug/mL IgG
T6 construct: range 19-33
Experimental: as §1

[11] = target: HCV core peptide 67 (hepatitis C virus, N-terminal biotin; C-terminal amide); assay: peptide EIA, 2 ug/mL IgG
Experimental: as §1

[12] = target: T7, HCV core peptide 35 (hepatitis C virus, N-terminal biotin; C-terminal amide); assay: peptide EIA, 2 ug/mL IgG
T7 construct: range 69-83
Experimental: as §1

[13] = target: T8, HCV core peptide 16 (hepatitis C virus, N-terminal biotin; C-terminal amide); assay: peptide EIA, 2 ug/mL IgG
T8 construct: range 31-45
Experimental: as §1

[14] = target: HCV core peptide 45 (hepatitis C virus, N-terminal biotin; C-terminal amide); assay: peptide EIA, 2 ug/mL IgG
Experimental: as §1

[15] = target: T9, HCV core peptide 39 (hepatitis C virus, N-terminal biotin; C-terminal amide); assay: peptide EIA, 2 ug/mL IgG
T9 construct: range 77-91
Experimental: as §1

[16] = target: HCV core peptide 77 (hepatitis C virus, N-terminal biotin; C-terminal amide); assay: peptide EIA, 2 ug/mL IgG
Experimental: as §1

[17] = target: T10, HCV core peptide 37 (hepatitis C virus, N-terminal biotin; C-terminal amide); assay: peptide EIA, 2 ug/mL IgG
T10 construct: range 73-87
Experimental: as §1

[18] = target: T11, HCV core peptide 25 (hepatitis C virus, N-terminal biotin; C-terminal amide); assay: peptide EIA, 2 ug/mL IgG
T11 construct: range 49-63
Experimental: as §1

[19] = target: HCV core peptide 74 (hepatitis C virus, N-terminal biotin; C-terminal amide); assay: peptide EIA, 2 ug/mL IgG
Experimental: as §1

[20] = target: T12, HCV core peptide 11 (hepatitis C virus, N-terminal biotin; C-terminal amide); assay: peptide EIA, 2 ug/mL IgG
T12 construct: range 21-35
Experimental: as §1

[21] = target: HCV core peptide 60 (hepatitis C virus, N-terminal biotin; C-terminal amide); assay: peptide EIA, 2 ug/mL IgG
Experimental: as §1

[22] = target: HCV core peptide 76 (hepatitis C virus, N-terminal biotin; C-terminal amide); assay: peptide EIA, 2 ug/mL IgG
Experimental: as §1

[23] = target: T13, HCV core peptide 31 (hepatitis C virus, N-terminal biotin; C-terminal amide); assay: peptide EIA, 2 ug/mL IgG
T13 construct: range 61-75
Experimental: as §1

[24] = target: T14, HCV core peptide 15 (hepatitis C virus, N-terminal biotin; C-terminal amide); assay: peptide EIA, 2 ug/mL IgG
T14 construct: range 29-43
Experimental: as §1

[25] = target: HCV core peptide 73 (hepatitis C virus, N-terminal biotin; C-terminal amide); assay: peptide EIA, 2 ug/mL IgG
Experimental: as §1

[26] = target: T15, HCV core peptide 51 (hepatitis C virus, HELM PEPTIDE1{[O=C1N[C@H]2[C@H](CS[C@H]2CCCCC(=O)[*:2])N1].S.G.S.G.R.G.S.R.P.S.W.G.P.T.D.P.R.R.R.[am]}$$$$V2.0; SMILES …); assay: peptide EIA, 2 ug/mL IgG
T15 peptide: SGSGRGSRPSWGPTDPRRR
Experimental: as §1

[27] = target: T16, Mut1T110N biotin labeled HCV core peptide (hepatitis C virus, biotin labeled (position not given)); assay: capture EIA; Ab 3.906 ng/mL; bt-peptide 500 ng/mL
T16 peptide: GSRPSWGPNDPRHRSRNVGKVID

[28] = target: T17, 92-133 biotin labeled HCV core peptide (hepatitis C virus, UniProt Q9WMX2 92-133, chain 1: biotin label (bt-pep). Its position and any spacer are not visible in the passages shown.); assay: capture EIA; Ab 3.906 ng/mL; bt-peptide 500 ng/mL
T17 construct: Only the label 92-133 is printed
T17 peptide: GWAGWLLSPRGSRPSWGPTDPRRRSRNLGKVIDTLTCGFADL
Experimental: Assay wells were coated with sheep anti-mouse IgG Fc specific antibody and incubated overnight. The coating solution was then removed; the wells blocked using BSA/tween in PBS and then washed with dH2O. […] Next, biotin labeled peptides (diluted to 500 ng/mL in block) were added, the plates incubated for 10 minutes while shaking at 700 rpm and then washed. Peroxidase conjugated streptavidin (diluted to 200 ng/mL in block) was then added to all assay wells, incubated for 20 minutes while shaking at 700 rpm and then washed. Finally, color was developed using OPD and signal quenched using 1N H₂SO₄. Signal was read at 492 nm.

[29] = target: T18, C113WT biotin labeled HCV core peptide (hepatitis C virus, also: biotin labeled, position not given here); assay: capture EIA; Ab 3.906 ng/mL; bt-peptide 500 ng/mL
T18 peptide: RGSRPSWGPTD

[30] = target: T19, WT1STHV biotin labeled HCV core peptide (hepatitis C virus, biotin labeled (position not given)); assay: capture EIA; Ab 3.906 ng/mL; bt-peptide 500 ng/mL
T19 peptide: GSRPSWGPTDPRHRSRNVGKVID

[31] = target: T20, C113T109N biotin labeled HCV core peptide (hepatitis C virus, also: biotin labeled, position not given here); assay: capture EIA; Ab 3.906 ng/mL; bt-peptide 500 ng/mL
T20 construct: also called C113T110N
T20 peptide: RGSRPSWGPND

B1: Neo4 mouse monoclonal antibody (antibody, V domains shown)
VH: QIQLKESGPAVIKPSQSLSLTCIVSGFSITSSVYCWQWIRQPPGKGLEWMGRICYDGSVDYSPSITSRGTISRDTSLNKVFFQLSSVTNEDTAMYYCSRENHIDYYDTTYPSFDVWGAGTTVTVSS
VL: DIVLTQSPASLIVSLGQRATISCRASKSVNEYGYTYMHWYQQKPGLPPKLLIYLASNLDSGVPARFSGSGSGTDFTLNIHPVEEEDAATYYCQHSRELPYTFGGGTKLEIKR
notes: Mouse hybridoma antibody, isotype IgG1, purified with Protein G; also called HCV Neo4
[1]
  OD (A492 nm): 0.05 OD
[2]
  OD (A492 nm): 0.05 OD
[3]
  OD (A492 nm): 0.05 OD
[4]
  OD (A492 nm): 0.05 OD
[5]
  OD (A492 nm): 0.06 OD
[6]
  OD (A492 nm): 0.04 OD
[7]
  OD (A492 nm): 0.06 OD
[8]
  OD (A492 nm): 0.05 OD
[9]
  OD (A492 nm): 0.04 OD
[10]
  OD (A492 nm): 0.05 OD
[11]
  OD (A492 nm): 0.05 OD
[12]
  OD (A492 nm): 0.04 OD
[13]
  OD (A492 nm): 0.06 OD
[14]
  OD (A492 nm): 0.04 OD
[15]
  OD (A492 nm): 0.05 OD
[16]
  OD (A492 nm): 0.05 OD
[17]
  OD (A492 nm): 0.04 OD
[18]
  OD (A492 nm): 0.04 OD
[19]
  OD (A492 nm): 0.05 OD
[20]
  OD (A492 nm): 0.05 OD
[21]
  OD (A492 nm): 0.06 OD
[22]
  OD (A492 nm): 0.05 OD
[23]
  OD (A492 nm): 0.05 OD
[24]
  OD (A492 nm): 0.06 OD
[25]
  OD (A492 nm): 0.04 OD
[26]
  OD (A492 nm): 0.96 OD
[27]
  signal at 492 nm: 0.0719 A492
[28]
  signal at 492 nm: 0.217 A492
[29]
  signal at 492 nm: 0.0694 A492
[30]
  signal at 492 nm: 0.669 A492
[31]
  signal at 492 nm: 0.0717 A492
